The record followed here is patent publication US20170226211A1.

This assay concerns the target Cynomolgus/Rhesus CTLA-4 (cynomolgus/rhesus). Put plainly: ELISA, antibody coated, Cynomolgus/Rhesus CTLA-4 titrated. For orientation: An ELISA detects its analyte on a solid surface through an enzyme-linked reagent.

Ipilimumab (antibody) displayed an EC50 (read off the curve) of 0.2 nM.

For orientation: EC50 (read off the curve) means the midpoint of the concentration-response curve. High values mean weaker potency, low ones greater potency.
